Source: patent publication US20250299771A1

Tests used:
[1] = target: HLA-C*07:02/A*02:01 chimera of Example 2 (heavy chain with human β2m) (human)
[2] = target: HLA-C*07:02-A*02:01 chimera of Example 4 (heavy chain with human β2m) (human)

RYRPGTVAL (modifications not checked) [RYR peptide (…)] gave a Tm [1] of 48.3 °C and a Tm [2] of 49.8 °C.
